According to patent publication US20210032351A1 (XDCEXPLORER SHANGHAI, published 2021):
Ends that are not written are not given here. * marks the point of attachment. Biotin = O=C1N[C@H]2[C@H](CS[C@H]2CCCCC(=O)*)N1

Columns and labels:
[1] = molecular target: T1, human EGFRvIII protein, full length, on transfected cells (human, UniProt P00533 25-1210); experiment: FACS on U87MG-EGFRvIII cells, Alexa 488 secondary antibody, mean fluorescence intensity
T1 construct: whole, on cells; stably transfected CHO-K1, U87MG and HEK293(F) cells; also called hEGFRvIII; mutant EGFRvIII protein
Experimental: The preparation of U87MG-EGFRvIII required for FACS detection is as described in the preparation of the immunogen B in example 1. Normal human primary hepatocytes are purchased from BioreclamationIVT, and A431 tumor cells are purchased from ATCC. […] The cells are washed twice with the HBSS buffer and are counted, and then the cells are diluted with the HBSS buffer to 2×10⁶ cells/ml, added with 1% goat serum blocking solution, with the percentage being the mass percentage, and incubated on ice for 30 minutes, and then centrifugally washed twice with the HBSS buffer. […] The plate is centrifugally washed twice with the FACS buffer, added with 100 μL/well of a 1:1000 diluted fluorescence (Alexa 488) labeled secondary antibody (purchased from Invitrogen), and incubated on ice for 1 hour. […] The cells are resuspended in 100 μL of the FACS buffer, and the results are detected and analyzed by FACS (FACS Calibur, purchased from BD). Data analysis is performed by using the software (CellQuest) to obtain the mean fluorescence intensity (MFI) of the cells. Data is further analyzed by using the software (GraphPad Prism5) to perform data fitting and calculate EC50.

[2] = molecular target: T2, human EGFRvIII-hFc protein (human, UniProt P00533 25-645); experiment: ELISA, plate coated with human EGFRvIII-hFc, HRP secondary antibody, absorbance at 450 nm
T2 construct: extracellular domain; made in HEK293 cells, purified on protein A; also called immunogen A; hFc-tagged EGFRvIII protein; not shown: human IgG Fc fragment (hFc) of the pCpC vector
Experimental: The purified immunogen A (EGFRvIII-hFc) obtained in example 1 (for the preparation method, see step (I) in example 1) is diluted with PBS to a final concentration of 1.0 μg/mL, and then added to a 96-well ELISA plate at 100 μl/well. The plate is sealed with a plastic film and incubated at 4° C. overnight. The next day, the plate is washed twice with a plate washing solution [PBS+0.01% (v/v) Tween20], and added with a blocking solution [PBS+0.01% (v/v) Tween20+1% (w/w) BSA] for blocking 2 hours at room temperature. […] The plate is incubated for 2 hours at 37° C., and then washed 3 times with the plate washing solution [PBS+0.01% (v/v) Tween20]. The plate is added with an HRP (horseradish peroxidase) labeled secondary antibody (purchased from Sigma), incubated at 37° C. for 2 hours, and then washed 3 times with the plate washing solution [PBS+0.01% (v/v) Tween20]. The plate is added with 100 μl of TMB substrate/well, incubated for 30 minutes at room temperature, and then added with 100 μl of stopping solution (1.0N HCl)/well. A450 nm value is read using an ELISA plate reader (SpectraMax 384plus, purchased from Molecular Device), and the results are shown in FIG. 11 and table 19.

pep01 = molecular target: T3, pep01; experiment: peptide dot matrix ELISA
T3 peptide: LEEKKGNYVVTDHGSCK(Biotin)

pep02 = molecular target: T4, pep02; experiment: peptide dot matrix ELISA
T4 peptide: EEKKGNYVVTDHGSCVK(Biotin)

pep03 = molecular target: T5, pep03; experiment: peptide dot matrix ELISA
T5 peptide: EKKGNYVVTDHGSCVRK(Biotin)

pep08 = molecular target: T6, pep08 (cysteine pairing not given here); experiment: peptide dot matrix ELISA
T6 peptide: YVVTDHGSCVRACGADK(Biotin)

pep09 = molecular target: T7, pep09 (cysteine pairing not given here); experiment: peptide dot matrix ELISA
T7 peptide: VVTDHGSCVRACGADSK(Biotin)

pep10 = molecular target: T8, pep10 (cysteine pairing not given here); experiment: peptide dot matrix ELISA
T8 peptide: VTDHGSCVRACGADSYK(Biotin)

pep11 = molecular target: T9, pep11 (cysteine pairing not given here); experiment: peptide dot matrix ELISA
T9 peptide: TDHGSCVRACGADSYEK(Biotin)

pep12 = molecular target: T10, pep12 (cysteine pairing not given here); experiment: peptide dot matrix ELISA
T10 peptide: DHGSCVRACGADSYEMK(Biotin)

pep17 = molecular target: T11, pep17; experiment: peptide dot matrix ELISA
T11 peptide: VRACGADSYEMEEDGVK(Biotin)

pep19 = molecular target: T12, pep19; experiment: peptide dot matrix ELISA
T12 peptide: ACGADSYEMEEDGVRKK(Biotin)

pep22 = molecular target: T13, pep22; experiment: peptide dot matrix ELISA
T13 peptide: ADSYEMEEDGVRKCKKK(Biotin)

pep23 = molecular target: T14, pep23 (cysteine pairing not given here); experiment: peptide dot matrix ELISA
T14 peptide: DSYEMEEDGVRKCKKCK(Biotin)

pep24 = molecular target: T15, pep24 (cysteine pairing not given here); experiment: peptide dot matrix ELISA
T15 peptide: SYEMEEDGVRKCKKCEK(Biotin)

pep25 = molecular target: T16, pep25 (cysteine pairing not given here); experiment: peptide dot matrix ELISA
T16 peptide: YEMEEDGVRKCKKCEGK(Biotin)

pep29 = molecular target: T17, pep29 (cysteine pairing not given here); experiment: peptide dot matrix ELISA
T17 peptide: EDGVRKCKKCEGPCRKK(Biotin)

pep30 = molecular target: T18, pep30 (cysteine pairing not given here); experiment: peptide dot matrix ELISA
T18 peptide: DGVRKCKKCEGPCRKVK(Biotin)

pep31 = molecular target: T19, pep31 (cysteine pairing not given here); experiment: peptide dot matrix ELISA
T19 peptide: GVRKCKKCEGPCRKVCK(Biotin)

pep32 = molecular target: T20, pep32 (cysteine pairing not given here); experiment: peptide dot matrix ELISA
T20 peptide: VRKCKKCEGPCRKVCNK(Biotin)

pep34 = molecular target: T21, pep34 (cysteine pairing not given here); experiment: peptide dot matrix ELISA
T21 peptide: KCKKCEGPCRKVCNGIK(Biotin)

pep04 = molecular target: T22, pep04; experiment: peptide dot matrix ELISA
T22 peptide: KKGNYVVTDHGSCVRAK(Biotin)

pep16 = molecular target: T23, pep16 (cysteine pairing not given here); experiment: peptide dot matrix ELISA
T23 peptide: CVRACGADSYEMEEDGK(Biotin)

pep18 = molecular target: T24, pep18; experiment: peptide dot matrix ELISA
T24 peptide: RACGADSYEMEEDGVRK(Biotin)

pep26 = molecular target: T25, pep26 (cysteine pairing not given here); experiment: peptide dot matrix ELISA
T25 peptide: EMEEDGVRKCKKCEGPK(Biotin)

pep28 = molecular target: T26, pep28 (cysteine pairing not given here); experiment: peptide dot matrix ELISA
T26 peptide: EEDGVRKCKKCEGPCRK(Biotin)

pep33 = molecular target: T27, pep33 (cysteine pairing not given here); experiment: peptide dot matrix ELISA
T27 peptide: RKCKKCEGPCRKVCNGK(Biotin)

pep35 = molecular target: T28, pep35 (cysteine pairing not given here); experiment: peptide dot matrix ELISA
T28 peptide: CKKCEGPCRKVCNGIGK(Biotin)

[3] = molecular target: T29, human EGFR protein (wild-type), on cells (human, UniProt P00533 25-1210); experiment: FACS on CHOK-EGFR cells
T29 construct: whole, on cells; transfected on CHO-K1 cells; endogenous on the human cell lines; the cell is named under assay; also called wild-type EGFR; hEGFR

[4] = molecular target: T2, human EGFRvIII-hFc protein; experiment: ELISA, coated EGFRvIII-hFc
Experimental: The plate is incubated for 2 hours at 37° C., and then washed 3 times with the plate washing solution [PBS+0.01% (v/v) Tween20]. The plate is added with an HRP (horseradish peroxidase) labeled secondary antibody (purchased from Sigma), incubated at 37° C. for 2 hours, and then washed 3 times with the plate washing solution [PBS+0.01% (v/v) Tween20]. The plate is added with 100 μl of TMB substrate/well, incubated for 30 minutes at room temperature, and then added with 100 μl of stopping solution (1.0N HCl)/well. A450 nm value is read using an ELISA plate reader (SpectraMax 384plus, purchased from Molecular Device), and the results are shown in FIG. 11 and table 19.

[5] = molecular target: T1, human EGFRvIII protein, full length, on …; experiment: FACS on CHOK-EGFRvIII cells

B1: Chimeric antibody 63A10 (antibody, human IgG1, V domains shown)
VH: QVQLQQSGAELARPGASVKMSCKASGYTFISFTMHWVKQRPGQGLEWIGYINPNSGYTKYNQKFKDKATLTAGQSSSTAYMQLSSLTSEDSAVYYCTRGGGRGFAYWGQGTLVTVSA
VL: DILMTQSPSSMSVSLGDTVTITCHASQDINSNIGWLQQKPGKSFKALIYHGTNLEDGVPSRFSGSGSGADYSLTISSLESEDFADYYCVQYAQFPFTFGSGTKLEIK
notes: also called c63A10A7
- EC50 (read off the curve) [1]: ~2 nM
- EC50 (read off the curve) [2]: ~0.03 nM

B2: Chimeric antibody 64F1 (antibody, V domains shown)
VH: QVQLQQSGAELARPGASVKMSCKASGYTFSSYTMHWAKQRPGQGLEWIGYINPSSGYTKYNQKFKDKATLTADKSSSTAYMQLSSLTSEDSIVYYCARGGGRGFAYWGQGTLVTVSA
VL: QIVLTQSPAIMSASPGERVTMTCSASSSVSYMYWYQQKPGSSPRLLIYDTSNLASGVPVRFSGSGSGTSYSLTISRVEAEDAATYYCQQWSSYSLTFGAGTKLELK
notes: also called 64F1F8 chimeric
- ELISA signal (pep01): 0.05
- ELISA signal (pep02): 0.05
- ELISA signal (pep03): 0.05
- ELISA signal (pep08): 0.05
- ELISA signal (pep09): 0.05
- ELISA signal (pep10): 0.05
- ELISA signal (pep11): 0.05
- ELISA signal (pep12): 0.05
- ELISA signal (pep17): 0.05
- ELISA signal (pep19): 0.05
- ELISA signal (pep22): 0.08
- ELISA signal (pep23): 0.07
- ELISA signal (pep24): 0.06
- ELISA signal (pep25): 0.06
- ELISA signal (pep29): 0.06
- ELISA signal (pep30): 0.06
- ELISA signal (pep31): 0.06
- ELISA signal (pep32): 0.06
- ELISA signal (pep34): 0.07

B3: Chimeric antibody 63A10 (antibody, V domains shown)
VH: QVQLQQSGAELARPGASVKMSCKASGYTFISFTMHWVKQRPGQGLEWIGYINPNSGYTKYNQKFKDKATLTAGQSSSTAYMQLSSLTSEDSAVYYCTRGGGRGFAYWGQGTLVTVSA
VL: DILMTQSPSSMSVSLGDTVTITCHASQDINSNIGWLQQKPGKSFKALIYHGTNLEDGVPSRFSGSGSGADYSLTISSLESEDFADYYCVQYAQFPFTFGSGTKLEIK
notes: also called c63A10A7
- ELISA signal (pep01): 0.05
- ELISA signal (pep04): 0.06
- ELISA signal (pep08): 0.05
- ELISA signal (pep09): 0.05
- ELISA signal (pep10): 0.05
- ELISA signal (pep11): 0.05
- ELISA signal (pep16): 0.05
- ELISA signal (pep17): 0.05
- ELISA signal (pep18): 0.05
- ELISA signal (pep25): 0.06
- ELISA signal (pep26): 0.33
- ELISA signal (pep28): 0.06
- ELISA signal (pep30): 0.06
- ELISA signal (pep31): 0.06
- ELISA signal (pep33): 0.07
- ELISA signal (pep34): 0.07
- ELISA signal (pep35): 0.07

B4: c75G7C6-3 (antibody, human IgG1, V domains shown)
VH: EVQLQQSGPELVKPGASVKIPCKASGYTFTDYNMDWVKQSHGKSLEWIGDINPNNGDTIYNQKFKGKATLTVDKSSSTAYMELRSLTSEDTAVYYCARGDYEGYYPVYYAMDYWGQGTSVTVSS
VL: ENVLTQSPAIMSASPGEKVTMTCRASSSVSSSYLHWYQQKSGASPKLWIFSTSNLAAGVPARFSGSGSGTSYSLTVSSVEAEDAATYYCQQYSGYPLTFGAGTKLELK
notes: chimeric, human IgG1 / kappa; DG of heavy chain CDR3 mutated to EG; also called DG/EG mutant
- fold decrease in binding ability compared to the wild-type chimeric antibody c75G7C6 [3]: 3 fold
- fold decrease in binding ability compared to the wild-type chimeric antibody c75G7C6 [4]: 22 fold
- fold decrease in binding ability compared to the wild-type chimeric antibody c75G7C6 [5]: 2.5 fold
